US9494574B2, “T-cell death-inducing epitopes” (AbGenomics Cooperatief U.A., priority 2004, dated 2016)
“Also recorded” adds a separate entry of the source.

B1: m128-9F9: mouse monoclonal antibody from hybridoma raised against Concanovalin A-activated human T-cells; induces T-cell apoptosis (antibody, V domains shown)
VL: DVLMTQTPLSLPVSLGDQASISCRSSQSIVNSNGNTYLEWYLQKPGQSPKLLIYKVSNRFSGVPDRFSGSGSGTDFTLKISRVEAEDLGVYYCFQGSHVPWTFGGGTKLEIK
VH: EVQLVETGGGLVQPKGSLKLSCAASGFTFNTNAMNWVRQAPGKGLEWVARIRSKSNNYATYYADSVKDRFTISRDDTQSMIYLQMNNLKTEDTGMYYCVRGGSYWYFDVWGAGTTVTVSS
B2: m152-15A7: mouse monoclonal antibody from hybridoma raised against Concanovalin A-activated human T-cells; induces T-cell apoptosis (antibody, V domains shown)
VL: DILMTQTPLSLPVSLGDQASISCRSSQSIVHNDGNTYFEWYLQKPGQSPKLLIYKVSNRFSGVPDRFSGSGSGTHFTLNISRVEAEDLGIYYCFQGSYVPLTFGAGTKLELK
VH: DVQLVESGGGLVQPGGSRKLSCAASGFTFSSFGMHWVRQAPEKGLEWVAYINGGSSTIFYANAVKGRFTISRDNPKNTLFLQMTILRSEDTAIYYCGRYASYGGGAMDYWGQGTSVTVSS
B3: m166-43B6: mouse monoclonal antibody from hybridoma raised against Concanovalin A-activated human T-cells; induces T-cell apoptosis (antibody, V domains shown)
VL: ENVLTQSPAIMSASPGEKVTMTCRASSTVNSTYLHWFQQKSGASPKLWIYGSSNLASGVPARFSGSGSGTSYSLTISSVEAEDAATYYCQQYSGYPLTFGAGTTLELK
VH: EVQLQQSGPDLVKPGALVKISCKASGYSFTAYYIHWVKQSHGKSLEWIGRVNPNTGGTSYNPKFKGKAILNVDKSSSTAYMELRSLTSEDSAVYYCARSGSPYYRYDDWGQGTTLTVSS

How the values were obtained:
[1] = tested on: non-activated human T-cells; assay: Apoptosis of non-activated (resting) human T-cells with monoclonal antibodies (annexin V staining, FACS, CD3-positive gated); format: cell-based; settings: for Percentage of apoptotic T-cells: Day 0, non-activated human T-cells, hybridoma culture supernatant, 6 hours, annexin V positive among CD3-positive cells; for effect on non-activated human T-cells: result in words
Source text: (§1) It is well known that T-cell death-inducing antibodies can be used as therapeutic agents to treat T-cell-related diseases such as transplantation rejections, autoimmune diseases, and allergy. Three monoclonal antibodies against human T-cells were generated, and the capabilities of these monoclonal antibodies to induce apoptosis of activated human T-cells were examined. Culture supernatants containing monoclonal antibodies secreted by hybridoma cell line m128-9F9, m152-15A7, or m166-43B6 were incubated with either non-activated human T-cells (Day 0) or in vitro activated human T-cells (Day7) for 6 hours. Cells were stained with annexin V after incubation, and subjected to FACS analysis. CD3-positive cells were gated to ensure counting of either in vitro activated human T-cells or resting human T-cells. The apoptotic cells were annexin V staining-positive. […] This capability of inducing apoptosis of activated T-cells yet sparing the resting T-cells is a unique feature of the apoptotic pathway and is a dominating feature of therapeutic reagents targeting T-cell-mediated diseases.

[2] = tested on: in vitro activated human T-cells; assay: Induction of death of activated human T-cells by monoclonal antibodies (annexin V staining, FACS, CD3-positive gated); format: cell-based; settings: for Percentage of apoptotic T-cells: Day 7, in vitro activated human T-cells, hybridoma culture supernatant, 6 hours, annexin V positive among CD3-positive cells; for percentage of in vitro activated T-cells undergoing apoptosis compared to that of untreated cells: annexin V staining and FACS analysis; for induction of death (apoptosis) of in vitro activated human T-cells: result in words
Experimental: Activated T cells (see above) were resuspended to a final concentration of 5×10^5 cells/ml in RPMI medium containing 5 ng/ml of IL-2, and treated with control Ig, m128-9F9, m152-15A7, or m166-43B6.
as §1

Row | Molecule | Percentage of apoptotic T-cells [1] [%] | effect on non-activated human T-cells [1] | Percentage of apoptotic T-cells [2] [%] | percentage of in vitro activated T-cells undergoing apoptosis compared to that of untreated cells [2] | induction of death (apoptosis) of in vitro activated human T-cells [2]
1 | B1 | 5.82 | did not affect non-activated human T-cells | 28.71 | about doubled | able to induce T-cell apoptosis in vitro; also recorded: induced death of in vitro activated human T-cells
2 | B2 | 5.23 | did not affect non-activated human T-cells | 51.66 | about doubled | able to induce T-cell apoptosis in vitro; also recorded: induced death of in vitro activated human T-cells
3 | B3 | 6.57 | did not affect non-activated human T-cells | 49.44 | about doubled | able to induce T-cell apoptosis in vitro; also recorded: induced death of in vitro activated human T-cells
